# Experimental data reported in the nanobody polyreactivity screen of Harvey et al. (2022).
# Test: yeast display, Sf9 membrane polyspecificity reagent, FACS + sequencing; frameworks hold sequencing errors
# How it was run: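 Galactose induction of a Saccharomyces cerevisiae BJ5465 synthetic nanobody display library ran 36–48 hours. The cells were then stained for 1 hour at 4 °C with 10% biotinylated, detergent-solubilized Sf9 membrane reagent, pulled down on streptavidin microbeads and FACS-sorted into low and high (top ~1%) gates on expression and reagent-binding fluorescence. Labels for polyreactivity follow the gate of origin.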
row,Sequence,polyreactivity (PSR sort gate)
1,QVQLVESGGGLVQAGGSLRLSCAASGSTFDYNAMGWYRQAPGKERELVAAINSGASTYYADSVKGRFTISRDNAKNTVYLQMNSLKPEDTAVYYCAKDYPYIGDYWGQGTQVTVSS,low polyreactivity
2,QVQLVESGGGLVQAGGSLRLSCAASGSTFDYNAMGWYRQAPGKERELVAAIRWSGDTTYYADSVKGRFTISRDNAKNTVYLQRNSLKPEDTAVYYCANVPIYRYGVWAMNYWGQGTQVTVSS,high polyreactivity
3,QVQLVESGGGLVQAGGSLRLSCAASGSTFDYNAMGWYRQAPGKERELVAAISRGGNTYYADSVKGRFTISRDNAKNTVYLQMNSLKPEDTAVYYCAKDSYGSYRFVRKRQKAYGYWGQGTQVTVSS,low polyreactivity
4,QVQLVESGGGLVQAGGSLRLSCAASGSTFDYYAMGRYRQAPGKERELVAAITTGGRTYYADSVKGRFTISRDNAKNTVYLQMNSLKPEDTAVYYCRERDYWGQGTQVTVSS,low polyreactivity
5,QVQLVESGGGLVQAGGSLRLSCAASGSTFDYYAMGWYRPAPGKERELVAGINRDDGNTYYADSVKGRFTISRDNAKNTVYLQMNSLKPEDTAVYYCAADSSWQGMDYSGQGTQVTVSS,low polyreactivity
6,QVQLVESGGGLVQAGGSLRLSCAASGSTFDYYAMGWYRQAPGKERELVAAISRTGGRTYYADSVKGRFTISRDNAKNTVYLQMNSLKPEDTAVYYCNAVTPIGGGDYDYWGEGTQVTVSS,low polyreactivity
7,QVQLVESGGGLVQAGGSLRLSCAASGSTFDYYAMGWYRQTPGKERELVAAISWSGGSTYYADSVKGRFTISRDNAKNTVYLQMNSLKPEDTAVYYCAAATNWGGEYWGQGTQVTVSS,high polyreactivity
8,QVQLVESGGGLVQAGGSLRLSCAASGSTFDYYDMGWYRQAPGKERELVATITSGGSTNYADSVKGRFTISRDNAKNNVYLQMNILKTEDTAVFYCASDIGGDGEGYDYWGQGTQVTVSS,low polyreactivity
9,QVQLVESGGGLVQAGGSLRLSCAASGSTFDYYDMGWYRQSPGKERELVAAISSGGDSTYYADSVKGRFTISRDNAKNTVYLQMNSLKPEDTAVYNCAAAVYYGQSVWYYYWGQGTQVTVSS,high polyreactivity
10,QVQLVESGGGLVQAGGSLRLSCAASGSTFDYYVMGWYRQAPGKERELVAAISHNAGSTYYADSVKGRFTISRDNAKNTVYLQMNSLKPEDTAVYYCAAPDYRNGVRYPLDYWGQGTQVTVSS,low polyreactivity
11,QVQLVESGGGLVQAGGSLRLSCAASGSTFEDYSMGWYRQAPGKERELVAAISHIGGSTYYADSVKGRFTISRDNAKNTVYLQMNSLKPDDTAVYYCAKGGFSSKFDYWGQGTQVTVSS,low polyreactivity
12,QVQLVESGGGLVQAGGSLRLSCAASGSTFEGNAMGWYRQAPGKERELVAAISSGGRTYYADSVKGRFTISRDNAKNTVYLQMNSLKPEDTAVYYCAAYVRRGFDWGQGTQVTVSS,high polyreactivity
13,QVQLVESGGGLVQAGGSLRLSCAASGSTFEGNVMGWDRQATGKERELVATITGSGGRTYADSVKGRFTISRDNAKNTVYLQMNSLKPEDTAVYYCYAVSTASDEYDYWGQGTQVTVSS,low polyreactivity
14,QVQLVESGGGLVQAGGSLRLSCAASGSTFEKNAMGWYRQAPGKEREFVAAISRRGGSTYYADSVKGRFTISRDNAKNTVYLQMNSLKPEDTAVYYCAAQQLTWYSYRGDYWGQGTQVTVSS,high polyreactivity
15,QVQLVESGGGLVQAGGSLRLSCAASGSTFEPYAMGWYRQAPGKERELVAAISSGGSTSYADSVKGRFTISRDNAKNTVYLQMNSLKPEDTAVYYCAKRWRSYRHEDYGYWGQGTQVTVSS,low polyreactivity
16,QVQLVESGGGLVQAGGSLRLSCAASGSTFEPYVMGWYRQAPGKERELVAAITYSGGRTYYADSVKGRFTISRDNAKNTVYLQMNSLKPEDTAVYYCAKVDRSYGYSRYWFKYGYWGQGTQVTVSS,low polyreactivity
17,QVQLVESGGGLVQAGGSLRLSCAASGSTFEQYAMGGYRQAPGKEKELDAAISGSGTRTYYADSVKGRFTISRDNAKNTVYLQMNSLKAEDTAVYYCAARFSYPAILQAYYHWGQGTQVTVSS,high polyreactivity
18,QVQLVESGGGLVQAGGSLRLSCAASGSTFESNAMGWYRQAPGKERELVAAISRGGNTYYADSVKGRFTISRDNAKITVYLQMNSLKPEDTAVYYCNVDRGKPVPPSEYWGQGTQVTVSS,low polyreactivity
19,QVQLVESGGGLVQAGGSLRLSCAASGSTFESNTMGWYSQAPGKERELVAAISYSGGRTYYADSVKGRFTISRDNAKNTVYLQMNSLKPEDTAVYYCAARWSVSYQYWGQGTQVTVSS,high polyreactivity
20,QVQLVESGGGLVQAGGSLRLSCAASGSTFETNAMGWYRQAPGTERELVAAIRWSTGNTYYADSVKGRFTISRDNAKNTVYLQMNSLKPEDTAVYYCAAYKGKHYNEGYWGQGTQVTVSS,low polyreactivity
21,QVQLVESGGGLVQAGGSLRLSCAASGSTFEYNSMGWYRQAPGKERELVGSSTNYADSVKGRFTISRDNAKNTVYLQMNSLLPEYTAVYYCAREQGVNRNHDYWGQGTQVTVSS,low polyreactivity
22,QVQLVESGGGLVQAGGSLRLSCAASGSTFEYYAMGWYRQAPGKERELVAAISWSGGSTYYADSVKGRFTISRDNAKNTVYLQMNSLKPEDTAVYDCATDTGTSFYGINYGYDYWGQGTQVTVSS,low polyreactivity

row,Sequence,polyreactivity (PSR sort gate)
1,QVQLVESGGGLVQAGGSLRLSCAASGSTFFDYAMGWYRKAPGKERELVAAISRSGDTNYADSVKGRFTISRDNAKNTVYLQMKSLKPEDTAVYYCAKDWAYRRHWVGFYYWGQGTQVTVSS,low polyreactivity
2,QVQLVESGGGLVQAGGSLRLSCAASGSTFFEYTMGWYRRAPGKEREFVADIRGRDGSTSYADSVKGRFTISRDNAKNTVYLQMNSLKPEDTAVYYCATEYFPQYQSTGWYDYWGQGTQVTVSS,low polyreactivity
3,QVQLVESGGGLVQAGGSLRLSCAASGSTFFGYAMGRYRQAPGKERELVAAISYRGGSTYYADSVKGRFTISRDNAKNTVYLQMNSLKPEDTAVYYCAATHGPTGSYYWGQGTQVTVSS,high polyreactivity
4,QVQLVESGGGLVQAGGSLRLSCAASGSTFFGYDMGWYRQAPGKERELVATINSGGSTYYADSVKGRFTISRDNAKNTVYLQMNSLKPEDTAVYYCAARPSYLYPYDRTGEYDYWGQGTQVTVSS,high polyreactivity
5,QVQLVESGGGLVQAGGSLRLSCAASGSTFFHYVMGWYRQAPGKEREVVAAIRWSGGRTRYADSVKRRFTISRDNAKITVYLQMNSLIPEDTAVFYCAAYRLSKPFYKYDYWGQGTQVTVSS,high polyreactivity
6,QVQLVESGGGLVQAGGSLRLSCAASGSTFFHYVMGWYRQAPWKERELVAAIRWSGGRTRYADSVKGRFTISRDNAKNTVYLQMNSLKPEDTAVYYCAAYRLSKPFYKYDYWGQGTQVTVSS,high polyreactivity
7,QVQLVESGGGLVQAGGSLRLSCAASGSTFFIWNAMGWYRQAPGKERELVAGITRGGSTNYADSVKGRFTISRDNAKNTVYLQMNSLKPEDTAVYYCAADGTVVYGYDYWGQGTQVTVSS,low polyreactivity
8,QVQLVESGGGLVQAGGSLRLSCAASGSTFFIYAMGWYRQAPGKERELVAAISGSGGTTYYADSVKGRFTISRDNAKNTVYLQMNSLKPEDTAVYYCNKDYYPGSYDYWGQGTQVTVSS,low polyreactivity
9,QVQLVESGGGLVQAGGSLRLSCAASGSTFFLNAMGWYRQAPGKESEFVAAISYTSTSTYYADSVKGRFTISRDNAKNTVYLQMNSLKPEDTAVYYCAVDAAGWYYTVETGDYAEDYWGQGTQVTVSS,low polyreactivity
10,QVQLVESGGGLVQAGGSLRLSCAASGSTFFLYAMGWYRQAPGKERELVAAINYIGGTYYADSVKGRFTISRDNAKNTVYLQMNSLKPEDTAVYYCAASYVGTIAGMDYWGQGTQVTVSS,low polyreactivity
11,QVQLVESGGGLVQAGGSLRLSCAASGSTFFLYAMGWYRQAPGKERELVAVITWRGGRTYYADSVKGRFTISRDNAKNTVYLQMNSMKPEDTAVYYCAAEYYWPVKYYYWGQGTQVTVSS,high polyreactivity
12,QVQLVESGGGLVQAGGSLRLSCAASGSTFFNYAMGWYRQAPGKERELVAAITGSGGRTYYADSVKGRFTISRDNAKNTVYLQMNSLKPEDTAVYYCAASATYDPHDYWGQGTQVTVSS,high polyreactivity
13,QVQLVESGGGLVQAGGSLRLSCAASGSTFFPNGMGWYRQAPGKERELVAAITQDGGSTYYADSVKGRFTISRDKAKNTVYLQMNSLKPEDTAVYYCAASAGPYYEYGYWGQGTQVTVSS,low polyreactivity
14,QVQLVESGGGLVQAGGSLRLSCAASGSTFFPYAMGWYRPAPGKERELVAAIRWSGGRTYYADSVKGRFTISRDNAKNTVYLQMNSLKPEDTAVYYCAADKYLDYDYWGQGTQVTVSS,high polyreactivity
15,QVQLVESGGGLVQAGGSLRLSCAASGSTFFPYAMGWYRQAPGKERELVATINYSGGGTYYADSVKGRFTISRDNAKNTVYLQMNSLKPEDTAVYYCANTLARFDRGYYWGQGTQVTVSS,low polyreactivity
16,QVQLVESGGGLVQAGGSLRLSCAASGSTFFQYAMGWYRPAPGKERELVAAITTSGGRTYYADSVKGRFTISRDNAKNTVYLQMNSLKPEDTAVYYCAGYNYWGQGTQVTVSS,high polyreactivity
17,QVQLVESGGGLVQAGGSLRLSCAASGSTFFRNAMGWYRQAPGKERELVAGITSGVTTYYADSVKGRFTISRDNAKNTVYLQMNSLKPEDTAVYYCAVYWRGRGAFTYGSWGQGTQVTVSS,high polyreactivity
18,QVQLVESGGGLVQAGGSLRLSCAASGSTFFRYAMGLYRQAPGKEREFVAAITSSGGNTYYADSVKGRFTISRDNAKNTVYLQMNSLKPEDTAVYYCAAVWYSPYVKYNYWGQGTQVTVSS,low polyreactivity
19,QVQLVESGGGLVQAGGSLRLSCAASGSTFFRYAMGWYRQAPGKEREFVAAISKRGGSTHYADSVKGRFTISRDNAKNTVYLQMNSLKPEDTAVYYCAASSFTSSYNYWGQGTQVTVSS,high polyreactivity
20,QVQLVESGGGLVQAGGSLRLSCAASGSTFFSNTMGWYRQAPGIERELVAAITSRGGRTYYADSVKGRFTISRDNAKNSVYLQMNSLKPEDTAVYYCAARFVLHGVYLKFYWGQGTQLTVSS,high polyreactivity
21,QVQLVESGGGLVQAGGSLRLSCAASGSTFFSYDMGWYRQAPGKERELVATISTSVGRTYYADSVKGRFTISRDNAKNTVYLQMNSLKPEDTAVYYCATVGYLYTPVVVTWWDWGDYWGQGTQVTVSS,low polyreactivity
